# Source: US20210371508A1 (University of Texas, published 2021)
# Where a chain is given by its changes, count along the chain named.
# B1: NMES-4 anti-NMES1 monoclonal antibody (antibody, IgG1, V domains shown)
# VH: EVQLVQSGGEVKKPGSSVKVSCKASGGTFSTYAISWVRQAPGQGLEWMGGIIPIFGTTNYAQKFQGRVTITADRSTSTAYMELSSLRSEDTAVYYCARVSELGDYYAMDVWGQGTTVTVSS
# VL: DIQMTQSPSSLSASVGDRVTITCRASQGIASALAWYQQKPGKAPKLLIYDASNLESGVPSRFSGSGSGTDFTLTISSLQPEDFATYYCQQAHSFPLTFGGGTKLEIK
# notes: also called NM-4; NMES1-4
# B2: NMES-5 anti-NMES1 monoclonal antibody (antibody, IgG1, V domains shown)
# VH: QVQLVQSGAEVKKPGASVKVSCKASGYTFTSYGISWVRQAPGQGLEWMGWISAYNGNTNYAQKLQGRVTMTTDTSTSTAYMELRSLRSDDTAVYYCARATRGNAFDIWGQGTMVSVSS
# VL: QSALTQPASVSGSPGQSITISCTGTSSDVGAYNYVSWYQQHPGKAPKLMIYDVSNRPSGVSNRFSGSKSGNTASLTISGLQAEDEADYYCSSYTRSTTVVFGGGTKVTVL
# notes: also called NM-5; NMES1-5
# B3: NMES-10 anti-NMES1 monoclonal antibody (antibody, IgG1, V domains shown)
# VH: B2 VH with R101F, M113T, S115T
# VL: QSALTQPASVSGSPGQSITISCTGTSSDVGGYNYVSWYQQHPGKAPKLMIYDVSNRPSGVSNRFSGSKSGNTASLTISGLQAEDEADYYCSSYTSSSTLVVFGGGTKVTVL
# notes: also called NM-10; NMES1-10
# B4: NMES-6 anti-NMES1 monoclonal antibody (antibody, IgG1, V domains shown)
# VH: B2 VH with T100V, R101G, G102Q, N103L, I107Y, M113L, S115T
# VL: QSALNQPPSASGSPGQSVTISCTGTSSDVGGYNYVSWYQQHPGKAPKLMIYEVSKRPSGVPDRFSGSKSGNTASLTVSGLQAEDEADYYCSSYAGSNNLVFGGGTKVTVL
# notes: also called NM-6; NMES1-6
# B5: NMES-3 anti-NMES1 monoclonal antibody (antibody, IgG1, V domains shown)
# VH: EVQLLQSGGGVVRPGGSLRLSCAASGFTFDDYGMSWVRQAPGKGLEWVSGINWNGGSTGYADSVKGRFTISRDNAKNSLYLQMNSLRAEDTALYYCARASMVRGVYAFDIWGQGTMVIVSS
# VL: DVQMTQSPSSLSASIGDRVTITCRASQSIGSYLNWYQQRPGKAPKLLIYSASSLQSGVPSRFSGSGSRSDFTLTIASLQPEDFATYYCQQSYSGPYTFGQGTKVDIK
# notes: also called NM-3; NMES1-3
# B6: NMES-1 anti-NMES1 monoclonal antibody (antibody, V domains shown)
# VH: QVQLVQSGGGVVQPGRSLRLSCAASGFTFSSYAMHWVRQAPGKGLEWVAVISYDGSNKYYADSVKGRFTISRDNSKNTLYLQMNSLRAEDTAVYYCARLSRFGDESLKDPDYWGQGTLVTVSS
# VL: DIVMTQSPLSLPVTLGQPASISCRSSQSLVHSDGNTYLNWFQQRPGQSPRRLIYKVSNRDSGVPDRFSGSGSGTDFTLKISRVEAEDVGVYYCMQGAHWPPTFGPGTKLEIK
# notes: also called NM-1; NMES1-1
# B7: NMES-7 anti-NMES1 monoclonal antibody (antibody, IgG1, V domains shown)
# VH: EVQLVQSGAEVKKPGASVKVSCKASGYTFNRDAISWVRQAPGQGLEWMGWISGYNGNTYYAHKVLGRATMTTDTSTNTAYMELRSLTSDDTAMYYCARVGLQPDTTMDHWGQGTLVTVSS
# VL: DIQMTQSPSSLSASVGDRVTITCRASQDIRNDLAWYQQKPGKAPKLLIYTASSLQTGVPSRFSGSGSGTDFTLSISSLQPEDFATYYCLQDYKYPLTFGGGTKLEIK
# notes: also called NM-7; NMES1-7
# B8: NMES1, endogenous, in human breast cancer cells (BoM-1833) (ligand, UniProt Q9C002 1-83, looked up)
# chain: MSFFQLLMKRKELIPLVVFMTVAAGGASSFAVYSLWKTDVILDRKKNPEPWETVDPTVPQKLITINQQWKPIEELQNVQRVTK
# notes: Endogenous protein of the cells used for co-IP and for the cell assays; also called C15orf48
# Biological target: T1, recombinant human NMES1 protein (Normal Mucosa of Esophagus Specific 1) (human, UniProt Q9C002 1-83, limits assumed)
# T1 construct: also called rhNMES1; recombinant NMES1 protein
# Assay: titration ELISA, plate coated with recombinant NMES1 (1 µg/mL), anti-human IgG Fc HRP detection
# Protocol: (§1) Binding constants (EC50) of a panel of monoclonal antibodies were estimated by titration ELISA and data is analyzed using the 4 parameter curve fitting with GraphPad Prism program (Table 5). […] All experiments were performed with shaking at 1,000 rpm. Background wavelength shifts were measured from reference biosensors that were loaded only with antibody with antigen. ForteBio's data analysis software was used to fit the data to a 1:1 binding model to extract an association rate and dissociation rate.
# Anti-human IgG Fc HRP-conjugated antibody was diluted 1:5000 and added at a volume of 100 μl per well for incubation at 37° C. for 1 hour. The plates were washed 3 times with PBST (0.05% Tween-20) between incubation steps. TMB substrate was added 100 μl per well for color development and 2 M H2504 was added 50 μl per well to stop the reaction. The absorbance at 450 nm was read by SpectraMax microplate reader. For EC50 determination, data points were plotted by GraphPad Prism8. EC50 values were calculated using a three-parameter nonlinear model.
row,EC50 [nM],Binder
1,4.37,B1
2,0.216,B2
3,306,B3
4,2.39,B4
5,40.6,B5
6,2.98,B6
7,14.4,B7

# Biological target: T2, transferrin receptor 1 (TFRC) (human, UniProt P02786 1-760)
# T2 construct: Endogenous protein in cell or membrane extracts used for co-IP
# Assay: co-IP with α-NMES1 from Ctrl 1833 cells, western blot for TFRC; strong TFRC band
# T2 sequence (P02786 whole entry): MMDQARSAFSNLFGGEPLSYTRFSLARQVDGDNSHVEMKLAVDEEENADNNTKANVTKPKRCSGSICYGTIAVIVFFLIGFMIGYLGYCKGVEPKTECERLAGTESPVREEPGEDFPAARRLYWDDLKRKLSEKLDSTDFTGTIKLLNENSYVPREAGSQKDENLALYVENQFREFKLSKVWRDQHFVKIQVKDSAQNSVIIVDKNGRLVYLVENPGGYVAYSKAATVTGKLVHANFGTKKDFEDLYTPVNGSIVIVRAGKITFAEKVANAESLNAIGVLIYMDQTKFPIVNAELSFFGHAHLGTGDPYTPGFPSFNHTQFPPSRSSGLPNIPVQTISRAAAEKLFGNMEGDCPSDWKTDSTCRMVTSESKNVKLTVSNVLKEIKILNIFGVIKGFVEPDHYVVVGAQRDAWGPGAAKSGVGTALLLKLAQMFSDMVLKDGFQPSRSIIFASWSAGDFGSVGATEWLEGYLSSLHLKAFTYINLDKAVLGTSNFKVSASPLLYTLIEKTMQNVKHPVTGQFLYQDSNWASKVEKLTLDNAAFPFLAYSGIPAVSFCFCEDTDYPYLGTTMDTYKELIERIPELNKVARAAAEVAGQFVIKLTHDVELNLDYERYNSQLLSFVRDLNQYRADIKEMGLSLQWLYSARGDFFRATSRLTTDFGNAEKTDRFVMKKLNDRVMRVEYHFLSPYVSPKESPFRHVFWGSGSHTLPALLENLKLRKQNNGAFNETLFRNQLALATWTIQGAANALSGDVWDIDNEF
row,"Fold (IP/Input), TFRC [fold]",Binder
1,79.8,B8

# Biological target: T1, recombinant human NMES1 protein (Normal …)
# Assay: BLI (Octet), antibody on protein A biosensors, recombinant NMES1 0-900 nM, 1:1 fit
# Protocol: as §1
Kd [nM],koff [s⁻¹],kon [M⁻¹ s⁻¹],Binder
17.1,0.00382,223000,B1
27.9,0.00463,166000,B2
89.9,0.0131,146000,B3
19.5,0.00441,227000,B4
56,0.00301,53800,B5
15.5,0.00499,323000,B6
39.8,0.00595,150000,B7

# Biological target: T2, transferrin receptor 1 (TFRC)
# Assay: co-IP with α-NMES1 from NMES1-KD 1833 cells, western blot for TFRC; weaker TFRC band, number is normalised to the lower input
row,"Fold (IP/Input), TFRC [fold]",Binder
1,74.9,B8
